In patent US20240182549A1, “PEPTIDES AND ANTIBODY FUSIONS THAT BIND TO SARS-COV-2 AND METHODS OF USING SAME” (priority 2021, published 2024) one finds IC50, focus reduction neutralization test data, which are given here for one substance.

Bounds are passed on as bounds.

In assay [1] the target is S protein of authentic (isogenic) SARS-CoV-2 variant B.1.351, on virus (SARS-CoV-2) (UniProt P0DTC2). The assay is described as follows: cell-based or functional assay.
For assay [2], the target named is S protein of authentic SARS-CoV-2 variant D614G, on virus (SARS-CoV-2) (UniProt P0DTC2). The experiment in a line: cell-based or functional assay.

In the case of IgG REGN10933 (antibody), the IC50, focus reduction neutralization test in assay [1] was above 1000 ng/mL; in assay [2] it was 10 ng/mL.
